Assay results taken from article PMC9352680, “A comprehensive thermodynamic model for RNA binding by the Saccharomyces cerevisiae Pumilio protein PUF4”.
Positions count from the first letter of the chain named. In names and notes the source's numbering stands.

T1: PUF4 RNA-binding domain (Saccharomyces cerevisiae, UniProt P25339 537-888)
T1 sequence: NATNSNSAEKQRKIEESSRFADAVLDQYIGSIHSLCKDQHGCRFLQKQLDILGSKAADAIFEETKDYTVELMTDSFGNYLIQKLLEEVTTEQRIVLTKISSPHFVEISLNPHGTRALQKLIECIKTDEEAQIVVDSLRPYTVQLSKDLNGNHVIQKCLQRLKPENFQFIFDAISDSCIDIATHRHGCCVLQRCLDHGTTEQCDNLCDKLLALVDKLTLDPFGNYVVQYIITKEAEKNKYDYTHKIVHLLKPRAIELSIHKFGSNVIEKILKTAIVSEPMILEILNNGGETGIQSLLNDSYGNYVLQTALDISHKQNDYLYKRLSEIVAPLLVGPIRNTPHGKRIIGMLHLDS

B1: Id_ii_S2_P4E.2_K4.1_C4.2_[C-2A]_H4.1_A4.1_F4.1_T4.2_[G10A]_[T11A] (ssRNA)
RNA: UUUGAUUAAUAUGAUAUCGUUCUUUCUAUUGUAUAUUAAAUUCUUUCUCGAUAUCAUAUUAAUCUUU
B2: Id_ii_S2_P4E.3_K4.2_C4.2_[C-2G]_[T-1C]_H4.2_A4.1_F4.1_T4.2_[G10C]_[T11G] (ssRNA)
RNA: B1 RNA with A28G, U29C, G31A, A39C, A40G
B3: Id_ii_S2_P4E.2_K4.1_C4.2_[C-2A]_H4.1_A4.1_F4.1_T4.2_[G10C] (ssRNA)
RNA: B1 RNA with A39C, A40U
B4: Id_ii_S2_P4E.2_K4.1_C4.2_[C-2A]_[T-1A]_H4.1_A4.1_F4.1_T4.2_[G10A]_[T11C] (ssRNA)
RNA: B1 RNA with U29A, A40C
B5: Id_ii_S2_P4E.2_K4.1_C4.2_[C-2A]_[T-1A]_H4.1_A4.1_F4.1_T4.2_[G10A] (ssRNA)
RNA: B1 RNA with U29A, A40U
B6: Id_ii_S2_P4E.3_K4.2_C4.2_[C-2G]_[T-1G]_H4.2_A4.1_F4.1_T4.2_[G10A] (ssRNA)
RNA: B1 RNA with A28G, U29G, G31A, A40U
B7: Id_ii_S2_P4E.3_K4.2_C4.2_[C-2G]_[T-1C]_H4.2_A4.1_F4.1_T4.2_[G10C]_[T11A] (ssRNA)
RNA: B1 RNA with A28G, U29C, G31A, A39C
B8: Ie_S2_P3E.2_K3.1_C3.2_H3.1_A3.1_F3.1_[+7T]_T3.2 (ssRNA)
RNA: B1 RNA with A28C, A39U
B9: Id_ii_S2_P4E.2_K4.1_C4.2_[T-1A]_H4.1_A4.1_F4.1_T4.2_[G10A]_[T11A] (ssRNA)
RNA: B1 RNA with A28C, U29A
B10: Id_ii_S2_P4E.2_K4.1_C4.2_H4.1_A4.1_F4.1_T4.2_[G10C] (ssRNA)
RNA: B1 RNA with A28C, A39C, A40U
B11: Id_ii_S2_P4E.2_K4.1_C4.2_[C-2A]_[T-1C]_H4.1_A4.1_F4.1_T4.2_[G10A] (ssRNA)
RNA: B1 RNA with U29C, A40U
B12: Id_ii_S2_P4E.2_K4.1_C4.2_[C-2A]_[T-1C]_H4.1_A4.1_F4.1_T4.2_[G10A]_[T11C] (ssRNA)
RNA: B1 RNA with U29C, A40C
B13: Id_ii_S2_P4E.2_K4.1_C4.2_[C-2A]_H4.1_A4.1_F4.1_T4.2_[G10T]_[T11C] (ssRNA)
RNA: B1 RNA with A39U, A40C
B14: Id_ii_S2_P4E.2_K4.1_C4.2_[T-1C]_H4.1_A4.1_F4.1_T4.2_[G10T]_[T11A] (ssRNA)
RNA: B1 RNA with A28C, U29C, A39U
B15: Id_ii_S2_P4E.2_K4.1_C4.2_[C-2A]_[T-1A]_H4.1_A4.1_F4.1_T4.2_[G10A]_[T11G] (ssRNA)
RNA: B1 RNA with U29A, A40G
B16: Id_ii_S2_P4E.2_K4.1_C4.2_[T-1A]_H4.1_A4.1_F4.1_T4.2_[G10A] (ssRNA)
RNA: B1 RNA with A28C, U29A, A40U
B17: Id_ii_S2_P4E.2_K4.1_C4.2_[T-1G]_H4.1_A4.1_F4.1_T4.2 (ssRNA)
RNA: B1 RNA with A28C, U29G, A39G, A40U
B18: Id_ii_S2_P4E.2_K4.1_C4.2_[T-1C]_H4.1_A4.1_F4.1_T4.2_[G10T] (ssRNA)
RNA: B1 RNA with A28C, U29C, A39U, A40U
B19: Id_ii_S2_P4E.2_K4.1_C4.2_H4.1_A4.1_F4.1_T4.2_[G10A]_[T11A] (ssRNA)
RNA: B1 RNA with A28C
B20: Id_ii_S2_P4E.2_K4.1_C4.2_H4.1_A4.1_F4.1_T4.2_[T11C] (ssRNA)
RNA: B1 RNA with A28C, A39G, A40C
B21: Id_ii_S2_P4E.2_K4.1_C4.2_[T-1C]_H4.1_A4.1_F4.1_T4.2_[G10C] (ssRNA)
RNA: B1 RNA with A28C, U29C, A39C, A40U
B22: Id_ii_S2_P4E.3_K4.2_C4.2_[C-2G]_H4.2_A4.1_F4.1_T4.2_[G10T] (ssRNA)
RNA: B1 RNA with A28G, G31A, A39U, A40U
B23: Id_ii_S2_P4E.3_K4.2_C4.2_[C-2G]_[T-1C]_H4.2_A4.1_F4.1_T4.2_[G10T]_[T11C] (ssRNA)
RNA: B1 RNA with A28G, U29C, G31A, A39U, A40C
B24: Id_ii_S2_P4E.2_K4.1_C4.2_[C-2A]_[T-1A]_H4.1_A4.1_F4.1_T4.2_[G10A]_[T11A] (ssRNA)
RNA: B1 RNA with U29A
B25: Id_ii_S2_P4E.2_K4.1_C4.2_[T-1A]_H4.1_A4.1_F4.1_T4.2 (ssRNA)
RNA: B1 RNA with A28C, U29A, A39G, A40U

Target: T1, PUF4 RNA-binding domain
Test: Mg; RNA-MaP; 20 mM Na-HEPES pH 7.4, 30 mM KOAc, 0.75 mM MgCl2, 0.1% Tween-20, 5% glycerol, 0.1 mg/mL BSA, 2 mM DTT; 25 C; 0.0125-409.6 nM protein
Conditions: tags: N-His6-TEV cleaved; C-SNAP kept, Cy3B-labelled; label: tethered on chip by stalled RNA polymerase

Binder	Kd [nM]
B1	0.939
B2	37.1
B3	1.11
B4	1.96
B5	1.93
B6	57
B7	56.6
B8	0.308
B9	0.937
B10	0.572
B11	0.442
B12	0.678
B13	0.401
B14	0.342
B15	8.86
B16	0.506
B17	0.296
B18	0.15
B19	0.537
B20	0.275
B21	0.482
B22	7.68
B23	22.4
B24	3.89
B25	0.425
UCUCUUUAUAUUAUUAUCUCUU (ssRNA) [Ia_S1_P5E.1_K5.1_C5.1_H5.1_[G2A]_A5.1_F5.1_T5.1]	367
UCUCUUUAUAUUAUUGUCUCUU (ssRNA) [Ib_S1_P5E.1_K5.1_C5.1_H5.1_[G2A]_A5.1_F5.1_[A10G]_T5.1]	242
UCUCUUAGUAUUAUUUUCUCUU (ssRNA) [Ib_S1_P5E.1_K5.1_C5.1_H5.1_[T1A]_A5.1_F5.1_[A10T]_T5.1]	> 2300
UCUCUUUCUAUUAUUGUCUCUU (ssRNA) [Ib_S1_P5E.1_K5.1_C5.1_H5.1_[G2C]_A5.1_F5.1_[A10G]_T5.1]	> 2300
